The record followed here is patent US8486893B2, “Treatment of conditions involving demyelination” (Biogen Idec MA Inc., priority 2004, dated 2013).

Positions of bridges follow the written chain, without caps; N, C: chain ends. No end group written: not given here. *: point of attachment. Biotin = O=C1N[C@H]2[C@H](CS[C@H]2CCCCC(=O)*)N1

What all share (assay type): cell-based, rat
Assay [1] deals with co-cultures of dorsal root ganglion (DRG) neurons and oligodendrocytes. Kind of assay: In vitro myelination in co-cultures of DRG neurons and oligodendrocytes. The following applies: for expression of MBP by western blot: 4-week-old treated cocultures, 10 μg/ml for Fc fusions; for number of myelinating MBP+ cells compared with controls: cocultures infected with lentivirus for two weeks, FIG. 10E; for MBP in cultures by western blot: cocultures infected with lentivirus, FIG. 10F. As to the method: The role of Sp35 in myelination was examined in vitro by treating co-cultures of dorsal root ganglion (DRG) neurons and oligodendrocytes with Sp35-Fc and testing for myelination by immunohistochemistry and electron microscopy. For these studies, it was necessary to first generate primary cultures of DRG neurons and of oligodendrocytes.
Female Long Evans rat E14-E17 embryonic dorsal root ganglia were cultured as described by Plant et al., J. Neurosci. 22:6083-91 (2002). Dissected DRGs were plated on poly-L-lysine-coated cover slips (100 μg/ml) for 2 weeks in the presence of fluorodeoxyuridine for days 2-6 and days 8-11 in NLA medium containing 1× B27, 100 ng/ml NGF (Invitrogen).
A2B5^+ oligodendrocytes were prepared as described in Example 1, and were harvested by trypsinization.
For coculture studies, A2B5^+ oligodendrocytes were added to DRG neuron drop cultures in the presence or absence of 10 μg/ml Sp35-Fc. The culture medium (Neurobasal medium supplemented with B27 and 100 ng/ml NGF) was changed, and fresh Sp35-Fc was added to the cells every 3 d. To identify changes in myelination, 2-week-old cultures were stained by immunohistochemical staining (“IHC”) for neurofilaments with anti-βIII-tubulin antibody to identify axons, or anti-MBP antibody to identify oligodendrocytes., and 4-week-old cultures were subjected to SDS-PAGE followed by western blot analyses to quantify the MBP. In selected examples, cells were fixed for electron microscopy studies by adding 2.5% gluteraldehyde directly onto the cover slips. Myelinated axons in the 2-week-old cultures were quantified by counting the number of myelinated internode bundles that were derived from single MBP^+ oligodendrocytes. Samples were analyzed in duplicate. Error bars denote individual determinations. P values in all studies were determined using a one-way analysis of variance.
Several peptides containing portions of the Ig domain of Sp35 were examined in vitro, by treating co-cultures of dorsal root ganglion (DRG) neurons and oligodendrocytes with Sp35 Ig peptides and testing for myelination as described in Example 5.
For co-culture studies, A2B5^+ oligodendrocytes were added to DRG neuron drop cultures in the presence or absence of 10 μg/ml Sp35-Ig-Fc (Sp35 amino acids 417-493 fused to Fc). The culture medium (Neurobasal medium supplemented with B27 and 100 ng/ml NGF) was changed, and fresh Sp35-Ig-Fc was added to the cells every 3 d. To identify changes in myelination, 2-week-old cultures were stained by immunohistochemical staining (“IHC”) for neurofilaments with anti-βIII-tubulin antibody to identify axons, or anti-MBP antibody to identify oligodendrocytes and 4-week-old cultures were subjected to SDS-PAGE followed by western blot analyses to quantify the MBP.
We performed experiments to address the relative contributions to the myelination process of Sp35 in DRG neurons as compared to oligodendrocytes. We infected DRG neurons, oligodendrocytes and co-cultures (prepared as described in Example 5) with the FL-Sp35 and DN-Sp35 lentiviral vectors described in Example 1 and performed immunohistochemical straining for myelinated MBP cells after two weeks. A 2-fold increase in MBP levels in co-cultures where both cells express DN-Sp35 and a 2-fold decrease in MBP levels in co-cultures where both cells express FL-Sp35 was observed (FIG. 10G).
(Immunoblotting shows a protein as a band on a membrane.)

The subject of assay [2] is Fyn kinase. Kind of assay: Fyn expression and phosphorylation in oligodendrocytes by western blotting. The following applies: lentivirus-infected oligodendrocytes, FIG. 9B. As for the experimental part: The activity of RhoA GTPase is regulated by Fyn kinase See Liang, X, et al., J. Neurosci. 24:7140-7149 (2004). Increased Fyn expression and phosphorylation correlate with oligodendrocyte differentiation. Id. See also Osterhout, D. J., et al., J. Cell Biol. 145:1209-1218 (1999). To test if Sp35 antagonists affect Fyn function, Fyn expression and phosphorylation were measured directly by western blotting.

In assay [3] the test system is Oligodendrocytes. In words: Oligodendrocyte differentiation after infection with FL-Sp35 or DN-Sp35 lentivirus. The following applies: lentivirus at 2 MOI per cell. As for the experimental part: Enriched populations of oligodendrocytes were grown from female Long Evans P2 rats as described by Conn, Meth. Neurosci. 2:1-4 (Academic Press; 1990) with modifications as follows. Briefly, the forebrain was dissected and placed in Hank's buffered salt solution (HBSS; Invitrogen). The tissue was cut into 1-mm fragments and was incubated at 37° C. for 15 min in 0.01% trypsin and 10 μg/ml DNase. Dissociated cells were plated on poly-L-lysine-coated T75 tissue culture flasks and were grown at 37° C. for 10 d in DMEM medium with 20% fetal calf serum (Invitrogen). Oligodendrocyte precursors (A2B5+) were collected by shaking the flask overnight at 200 rpm at 37° C., resulting in a 95% pure population. Cultures were maintained in high-glucose Dulbecco's modified Eagle's medium (DMEM) with FGF/PDGF (10 ng/ml; Peprotech) for 1 week. Removal of FGF/PDGF allowed A2B5^+ cells to differentiate into O4^+ premyelinating oligodendrocytes after 3-7 d, and to differentiate into O4^+ and MBP^+ mature oligodendrocytes after 7-10 d. These differentiation states are readily apparent from changes in morphology: A2B5^+ cells are bipolar in shape, O4^+ premyelinating oligodendrocytes have longer and more branched processes and MBP^+ mature oligodendrocytes contain myelin sheet structures between processes.
We constructed lentiviral vectors that express wild-type and a dominant-negative form of Sp35. […]

[4] abbreviates: co-cultures where both cell types express the construct, two weeks, FIG. 10G.

As to “Ac-CLSPRKHC (SEQ ID NO:66) (Ac-CLSPRKHC-NH2; disulfide 1-8 (inferred); listed as Homo sapiens) [cyclized LSPRKH peptide with terminal cysteines, acetyl at N-terminus and NH2 at C-terminus]”, the “expression of MBP by western blot” value in assay [1] is “increased expression of MBP”.

As to “Biotin-GSGCLSPEKVC (SEQ ID NO:65; cysteine pairing not given here) [reference compound]”, in assay [1], the “expression of MBP by western blot” value is on record as “no increase in MBP”.

In the case of “Biotin-GSGCLSPRKHC (SEQ ID NO:63; cysteine pairing not given here)”, the “expression of MBP by western blot” value in assay [1] is given as “increased expression of MBP”.

For “Ac-CLSPEKVC (SEQ ID NO:67) (disulfide 1-8 (inferred); listed as Homo sapiens) [cyclic control peptide, reference compound]”, in assay [1], the “expression of MBP by western blot” value was “no increase in MBP”.

As to “Biotin-GSGCKHSPLRC (SEQ ID NO:64; cysteine pairing not given here) [reference compound]”, in assay [1], the “expression of MBP by western blot” value was “no increase in MBP”.

B1: FL-Sp35: mouse full length Sp35, amino acid residues 34-614 of SEQ ID NO:2, expressed from lentiviral vector (protein, listed as Homo sapiens)
chain: TGCPPRCECSAQDRAVLCHRKRFVAVPEGIPTETRLLDLGKNRIKTLNQDEFASFPHLEELELNENIVSAVEPGAFNNLFNLRTLGLRSNRLKLIPLGVFTGLSNLTKLDISENKIVILLDYMFQDLYNLKSLEVGDNDLVYISHRAFSGLNSLEQLTLEKCNLTSIPTEALSHLHGLIVLRLRHLNINAIRDYSFKRLYRLKVLEISHWPYLDTMTPNCLYGLNLTSLSITHCNLTAVPYLAVRHLVYLRFLNLSYNPISTIEGSMLHELLRLQEIQLVGGQLAVVEPYAFRGLNYLRVLNVSGNQLTTLEESVFHSVGNLETLILDSNPLACDCRLLWVFRRRWRLNFNRQQPTCATPEFVQGKEFKDFPDVLLPNYFTCRRARIRDRKAQQVFVDEGHTVQFVCRADGDPPPAILWLSPRKHLVSAKSNGRLTVFPDGTLEVRYAQVQDNGTYLCIAANAGGNDSMPAHLHVRSYSPDWPHQPNKTFAFISNQPGEGEANSTRATVPFPFDIKTLIIATTMGFISFLGVVLFCLVLLFLWSRGKGNTKHNIEIEYVPRKSDAGISSADAPRKFNMKMI
Regarding B1, the “decrease in MBP levels” value in assay [1] (setting [4]) is recorded as 2 fold. Further, in assay [1], the “number of myelinating MBP+ cells compared with controls” value is recorded as “decreased the number of myelinating MBP^+ cells twofold” and the “MBP in cultures by western blot” value was “twofold reduction”. In assay [1] (overexpression in either or both cell types), the “basal levels of myelination in comparison to control (empty vector)” value was “significantly descreased”. In addition, in assay [2], the Fyn phosphorylation result is reported as “reduced by twofold” and the Fyn protein expression entry is reported as “reduced by twofold”. The “number of mature oligodendrocytes compared with the control” value in assay [3] was “reduction in the number of mature oligodendrocytes”.

B2: DN-Sp35: dominant negative Sp35, amino acid residues 34-581 of SEQ ID NO:2, expressed from lentiviral vector (protein, listed as Homo sapiens)
chain: TGCPPRCECSAQDRAVLCHRKRFVAVPEGIPTETRLLDLGKNRIKTLNQDEFASFPHLEELELNENIVSAVEPGAFNNLFNLRTLGLRSNRLKLIPLGVFTGLSNLTKLDISENKIVILLDYMFQDLYNLKSLEVGDNDLVYISHRAFSGLNSLEQLTLEKCNLTSIPTEALSHLHGLIVLRLRHLNINAIRDYSFKRLYRLKVLEISHWPYLDTMTPNCLYGLNLTSLSITHCNLTAVPYLAVRHLVYLRFLNLSYNPISTIEGSMLHELLRLQEIQLVGGQLAVVEPYAFRGLNYLRVLNVSGNQLTTLEESVFHSVGNLETLILDSNPLACDCRLLWVFRRRWRLNFNRQQPTCATPEFVQGKEFKDFPDVLLPNYFTCRRARIRDRKAQQVFVDEGHTVQFVCRADGDPPPAILWLSPRKHLVSAKSNGRLTVFPDGTLEVRYAQVQDNGTYLCIAANAGGNDSMPAHLHVRSYSPDWPHQPNKTFAFISNQPGEGEANSTRATVPFPFDIKTLIIATTMGFISFLGVVLFCLVLLFLWSRGKG
As for B2, in assay [1] (setting [4]), the “increase in MBP levels” value turned out to be 2 fold. For the same molecule, in assay [1], the “number of myelinating MBP+ cells compared with controls” value is “increased the total number of myelinating MBP^+ cells five- to tenfold” and the “MBP in cultures by western blot” value is recorded as “tenfold increase”. In assay [2], the Fyn phosphorylation entry was “twofold increases” and the Fyn protein expression entry is “twofold increases”. For the same molecule, the “number of mature oligodendrocytes compared with the control” value in assay [3] is “increase in the number of mature oligodendrocytes”.

B3: Sp35-Ig-Fc: Sp35 amino acids 417-493 fused to Fc (protein)
chain: RARIRDRKAQQVFVDEGHTVQFVCRADGDPPPAILWLSPRKHLVSAKSNGRLTVFPDGTLEVRYAQVQDNGTYLCIA
modifications: left off: a dimerising Fc or GST
notes: Sp35 amino acids 417-493 fused to Fc
As for B3, the “expression of MBP by western blot” value in assay [1] is “increased”. In addition, the “increase in MBP protein compared with Sp35-Fc” value in assay [1] (western blot, FIG. 15) is recorded as “comparable”.
